From paper PMC4451617 come the findings set out here.

In assay [1] the target is ErbB4 receptor (rat (endogenous in rat brain membranes and cultured rat hippocampal neurons)).
For assay [2] the target is unchanged. Description: co-IP; ErbB4 immunoprecipitated with mAB10 from lysates (PBS + 1% TX-100) of cultured rat hippocampal neurons (>DIV 28), unstimulated or 10 nM NRG2 for 10 min; western blot, densitometric ratio of glutamate receptor subunit over ErbB4. A general note: A western blot detects proteins with antibodies after separation by electrophoresis.

Sequence of ErbB4 receptor (rat (endogenous in rat brain membranes and cultured rat hippocampal neurons)) (Q62956 26-1308): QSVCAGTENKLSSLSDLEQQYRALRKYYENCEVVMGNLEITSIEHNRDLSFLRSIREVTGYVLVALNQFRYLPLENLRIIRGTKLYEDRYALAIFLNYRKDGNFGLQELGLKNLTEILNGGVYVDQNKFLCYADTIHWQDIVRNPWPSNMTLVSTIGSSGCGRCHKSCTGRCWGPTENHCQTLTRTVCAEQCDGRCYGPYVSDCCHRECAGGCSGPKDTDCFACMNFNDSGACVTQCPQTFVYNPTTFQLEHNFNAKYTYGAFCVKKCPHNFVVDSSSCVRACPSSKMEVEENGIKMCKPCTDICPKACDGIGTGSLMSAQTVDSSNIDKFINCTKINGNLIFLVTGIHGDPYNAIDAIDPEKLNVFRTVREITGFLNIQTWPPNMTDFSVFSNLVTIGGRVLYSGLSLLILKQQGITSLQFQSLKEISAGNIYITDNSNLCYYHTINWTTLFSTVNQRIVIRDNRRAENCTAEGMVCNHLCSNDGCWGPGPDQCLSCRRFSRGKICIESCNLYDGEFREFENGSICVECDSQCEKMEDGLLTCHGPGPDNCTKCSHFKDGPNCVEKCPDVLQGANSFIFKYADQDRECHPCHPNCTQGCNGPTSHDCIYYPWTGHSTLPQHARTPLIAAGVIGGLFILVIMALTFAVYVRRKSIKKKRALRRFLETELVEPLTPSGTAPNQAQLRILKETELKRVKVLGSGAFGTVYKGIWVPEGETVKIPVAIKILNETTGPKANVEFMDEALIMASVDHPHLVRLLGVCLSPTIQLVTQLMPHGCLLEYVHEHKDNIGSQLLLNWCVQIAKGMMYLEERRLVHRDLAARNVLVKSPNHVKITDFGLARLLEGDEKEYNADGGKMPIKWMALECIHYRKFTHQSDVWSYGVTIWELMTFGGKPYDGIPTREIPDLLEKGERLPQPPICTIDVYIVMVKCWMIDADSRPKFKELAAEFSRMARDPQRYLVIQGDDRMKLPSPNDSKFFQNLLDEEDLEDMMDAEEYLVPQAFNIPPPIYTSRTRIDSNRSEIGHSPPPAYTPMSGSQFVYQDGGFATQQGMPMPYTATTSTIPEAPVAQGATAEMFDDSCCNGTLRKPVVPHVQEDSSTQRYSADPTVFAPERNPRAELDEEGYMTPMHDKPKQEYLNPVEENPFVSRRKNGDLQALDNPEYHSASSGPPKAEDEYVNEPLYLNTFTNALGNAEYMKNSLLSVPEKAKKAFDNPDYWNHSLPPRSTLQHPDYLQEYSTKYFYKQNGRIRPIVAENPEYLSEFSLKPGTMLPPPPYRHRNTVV

For “recombinant NRG2-ECD (neuregulin 2 extracellular domain) (ligand)”, the whole-cell NMDA-evoked currents (100 μM NMDA, +40 mV) in ErbB4+ cultured hippocampal interneurons after 10 min of 10 nM NRG2, relative to baseline; ErbB4-negative neurons not affected (% of baseline) in assay [1] is 43.

Consider “GluN2B subunit of the NMDA receptor (from UniProt Q00960 27-1482)”, for which the co-immunoprecipitation after NRG2, % of unstimulated controls (% of controls) in assay [2] is 198.
